Measurements taken from PMC6927765.
Where two headings read alike, the source gives them in different places. Each block holds one molecule with its values, some of them ahead of it.

Tests used:
Assay in all cases: SPR
[1] = target: CD3 mG1 D265A (not stated | mouse)
[2] = target: CD3 mG2a (not stated | mouse)
[3] = target: CD3 mG2a D265A (not stated | mouse)
[4] = target: CD3/CD20 mG1KD D265A bispecific antibody (not stated | mouse)
[5] = target: CD3/CD20 mG2aH4 bispecific antibody (not stated | mouse)
[6] = target: CD3 mG2a (not stated | mouse); remark: listed apart in the source
[7] = target: CD3/CD20 mG2aH4 bispecific antibody (not stated | mouse); remark: listed apart in the source

Molecule: Mouse Fc gamma receptor FCGR2 (from UniProt P08101 30-330)
Kd [2]: 1570 nM | Kd [5]: 1990 nM

B1: Mouse Fc gamma receptor FCGR1 (receptor)
chain: EVVNATKAVITLQPPWVSIFQKENVTLWCEGPHLPGDSSTQWFINGTAVQISTPSYSIPEASFQDSGEYRCQIGSSMPSDPVQLQIHNDWLLLQASRRVLTEGEPLALRCHGWKNKLVYNVVFYRNGKSFQFSSDSEVAILKTNLSHSGIYHCSGTGRHRYTSAGVSITVKELFTTPVLRASVSSPFPEGSLVTLNCETNLLLQRPGLQLHFSFYVGSKILEYRNTSSEYHIARAEREDAGFYWCEVATEDSSVLKRSPELELQVLGPQSSAPVWFHILFYLSVGIMFSLNTVLYVKIHRLQREKKYNLEVPLVSEQGKKANSFQQVRSDGVYEEVTATASQTTPKEAPDGPRSSVGDCGPEQPEPLPPSDSTGAQTSQS
Kd [6]: 21 nM | Kd [7]: 33 nM

B3: Mouse Fc gamma receptor FCGR3 (receptor)
chain: ALPKAVVKLDPPWIQVLKEDMVTLMCEGTHNPGNSSTQWFHNGRSIRSQVQASYTFKATVNDSGEYRCQMEQTRLSDPVDLGVISDWLLLQTPQRVFLEGETITLRCHSWRNKLLNRISFFHNEKSVRYHHYKSNFSIPKANHSHSGDYYCKGSLGSTQHQSKPVTITVQDPATTSSISLVWYHTAFSLVMCLLFAVDTGLYFYVRRNLQTPREYWRKSLSIRKHQAPQDK
Kd [6]: 625 nM | Kd [7]: 1030 nM

Results, then the molecule that gave them:

Kd [1]: 640 nM | Kd [2]: 320 nM | Kd [3]: 310 nM | Kd [4]: 670 nM
Molecule: Mouse FcRn (from UniProt Q61559 22-365; P01887 21-119) (receptor)

Kd [6]: 18 nM | Kd [7]: 39 nM
B2: Mouse Fc gamma receptor FCGR4 (receptor)
chain: GLQKAVVNLDPKWVRVLEEDSVTLRCQGTFSPEDNSIKWFHNESLIPHQDANYVIQSARVKDSGMYRCQTALSTISDPVQLEVHMGWLLLQTTKWLFQEGDPIHLRCHSWQNRPVRKVTYLQNGKGKKYFHENSELLIPKATHNDSGSYFCRGLIGHNNKSSASFRISLGDPGSPSMFPPWHQITFCLLIGLLFAIDTVLYFSVRRGLQSPVADYEEPKIQWSKEPQDK
